Where no end group is shown, it is not given here.
Target: T1, αVβ3 integrin purified from HUVE cell lysates (human, UniProt P06756 31-1048; P05106 27-788)
T1 construct: mature; Detergent-solubilised native heterodimer, coated on plates; also called vitronectin receptor; immobilized integrin
Test: affinity chromatography of HUVE cell lysate on RGDSPK Sepharose
Procedure: αVβ₃ integrin purification from HUVE cell lysates was done as described in Pytela et al., Meth. Enzynmol., 144:475-489 (1987). Briefly, 10⁸ cells were lysed in 1 ml of PBS containing 1 mM CaCl₂, 1 mM MgCl₂, 0.5 mM PMSF and 100 mM octylglucoside. […] The purity of the integrin was determined by SDS-PAGE under non-reducing conditions, followed by silver staining.

T1 sequence (P06756 31-1048, chain 1 of 2): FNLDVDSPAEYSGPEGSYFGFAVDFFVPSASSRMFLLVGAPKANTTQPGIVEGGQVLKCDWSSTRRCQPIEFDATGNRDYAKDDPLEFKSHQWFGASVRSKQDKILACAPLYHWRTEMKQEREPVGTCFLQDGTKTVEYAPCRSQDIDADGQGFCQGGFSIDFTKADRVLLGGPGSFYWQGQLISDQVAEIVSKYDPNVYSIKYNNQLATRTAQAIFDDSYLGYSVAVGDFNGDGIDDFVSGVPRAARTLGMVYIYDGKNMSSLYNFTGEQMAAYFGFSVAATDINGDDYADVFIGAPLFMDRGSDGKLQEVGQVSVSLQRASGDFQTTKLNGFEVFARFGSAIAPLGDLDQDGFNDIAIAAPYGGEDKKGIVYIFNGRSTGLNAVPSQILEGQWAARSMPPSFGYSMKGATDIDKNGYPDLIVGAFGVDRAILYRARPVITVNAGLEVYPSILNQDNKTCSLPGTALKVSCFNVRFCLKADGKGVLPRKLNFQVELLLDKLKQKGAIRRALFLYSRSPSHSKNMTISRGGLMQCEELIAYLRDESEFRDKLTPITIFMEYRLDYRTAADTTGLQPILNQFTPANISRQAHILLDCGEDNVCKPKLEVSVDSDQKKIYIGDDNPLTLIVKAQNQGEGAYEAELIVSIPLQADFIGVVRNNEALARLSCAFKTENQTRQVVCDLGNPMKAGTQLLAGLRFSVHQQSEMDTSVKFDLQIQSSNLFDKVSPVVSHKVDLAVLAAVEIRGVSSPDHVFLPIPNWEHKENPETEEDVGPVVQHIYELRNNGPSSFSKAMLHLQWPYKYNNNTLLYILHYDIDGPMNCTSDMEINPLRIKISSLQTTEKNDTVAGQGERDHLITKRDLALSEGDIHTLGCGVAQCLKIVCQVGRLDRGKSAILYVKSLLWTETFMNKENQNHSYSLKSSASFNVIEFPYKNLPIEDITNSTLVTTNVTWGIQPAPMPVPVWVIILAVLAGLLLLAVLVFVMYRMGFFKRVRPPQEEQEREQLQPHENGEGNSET
T1 sequence (P05106 27-788, chain 2 of 2): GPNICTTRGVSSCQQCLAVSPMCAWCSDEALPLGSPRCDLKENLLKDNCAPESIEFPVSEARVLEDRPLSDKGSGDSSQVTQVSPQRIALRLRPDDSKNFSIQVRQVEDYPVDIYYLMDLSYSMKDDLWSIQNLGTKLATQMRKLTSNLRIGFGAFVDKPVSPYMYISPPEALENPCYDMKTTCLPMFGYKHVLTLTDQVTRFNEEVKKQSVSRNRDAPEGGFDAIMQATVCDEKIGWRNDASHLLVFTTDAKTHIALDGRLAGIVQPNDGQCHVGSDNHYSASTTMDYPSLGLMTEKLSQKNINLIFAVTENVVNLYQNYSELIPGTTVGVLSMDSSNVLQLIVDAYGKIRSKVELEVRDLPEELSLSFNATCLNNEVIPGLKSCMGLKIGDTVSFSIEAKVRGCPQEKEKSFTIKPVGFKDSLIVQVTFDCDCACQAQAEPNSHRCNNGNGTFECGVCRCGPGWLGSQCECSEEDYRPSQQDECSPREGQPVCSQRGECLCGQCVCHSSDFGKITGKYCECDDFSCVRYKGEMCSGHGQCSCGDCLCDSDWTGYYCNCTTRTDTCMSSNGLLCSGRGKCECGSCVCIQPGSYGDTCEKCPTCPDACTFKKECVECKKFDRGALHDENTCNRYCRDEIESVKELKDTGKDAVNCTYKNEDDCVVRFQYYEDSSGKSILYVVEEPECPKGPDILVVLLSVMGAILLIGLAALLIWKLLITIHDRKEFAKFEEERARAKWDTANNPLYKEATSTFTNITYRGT

Does RGDSPK (also: coupled to cyanogen bromide activated Sepharose CL 4B, also called RGDSPK peptide) [RGDSPK Sepharose] bind?
Result: binds

Reference: US20040002124A1 (MUNIN, published 2004)
